Laboratory results: US20240400675A1 (published 2024)
Changes are numbered by the printed parent chain. Read-outs that look alike come from different tables or passages of the source.

B1: XENP35070 H2_L1.27 (antibody, V domains shown)
VH: EVQLVQSGAEVKKPGESLRISCKTSGYTFTEYTMHWVRQMPGKSLEWMGGIDPNNGNTHYNQKFQGHVTISVDKSISTAYLQWSSLKASDTAMYYCARIYYFGRLYFDFWGAGTLVTVSS
VL: DIQMTQSPSSLSASVGDRVTITCQASEDIYNRLAWYQQKPGKVPKLLISGATSLESGVPSRFSGSGSGKDYTFTISSLQPEDIATYYCQQYWSSPLTFGGGTKVEIKR
B2: XENP35890 H2.11_L1 (antibody, V domains shown)
VH: B1 VH with T28S
VL: B1 VL with S56T
B3: XENP35066 H2_L1.23 (antibody, V domains shown)
VH: B1 VH
VL: B1 VL with L54R, S56T
B4: XENP35064 H2_L1.21 (antibody, V domains shown)
VH: B1 VH
VL: B1 VL with S53N, S56T
B5: XENP35883 H1.19_L1 (antibody, V domains shown)
VH: QVQLVQSGAEVKKPGASVKVSCKTSGYTFTEYTMHWVRQAPGQSLEWMGGIDPNNGNTHYNQKFQGRVTITVDKSASTAYMELSSLRSEDTATYYCARIYYFGRLYFDFWGAGTLVTVSS
VL: B1 VL with S56T
B6: XENP36066 H2.119_L1 (antibody, V domains shown)
VH: B1 VH with Q65E
VL: B1 VL with S56T
B7: XENP35050 H2_L1.7 (antibody, V domains shown)
VH: B1 VH
VL: B1 VL with N31S, S56T
B8: XENP36065 H2.118_L1 (antibody, V domains shown)
VH: B1 VH with F64K
VL: B1 VL with S56T
B9: XENP35929 H2_L1.107 (antibody, V domains shown)
VH: B1 VH
VL: B1 VL with S56T, S94A
B10: XENP35096 H2.3_L1 (antibody, V domains shown)
VH: B1 VH with P53S
VL: B1 VL with S56T
B11: XENP35044 H2_L1.1 (antibody, V domains shown)
VH: B1 VH
VL: B1 VL with E27Q, S56T
B12: XENP35093 (having C6-30 H1.9_L1) (antibody, V domains shown)
VH: B5 VH with G56A, T93V
VL: B1 VL with S56T
B13: XENP36041 H2.91_L1 (antibody, V domains shown)
VH: B1 VH with G56F
VL: B1 VL with S56T
B14: XENP35097 H2.4_L1 (antibody, V domains shown)
VH: B1 VH with P53G
VL: B1 VL with S56T
B15: XENP36022 H2.72_L1 (antibody, V domains shown)
VH: B1 VH with P53A
VL: B1 VL with S56T
B16: XENP35100 H2.7_L1 (antibody, V domains shown)
VH: B1 VH with N55Q
VL: B1 VL with S56T
B17: XENP35979 H2_L1.187 (antibody, V domains shown)
VH: B1 VH
VL: B1 VL with Y30V, S56T
B18: XENP36021 H2.71_L1 (antibody, V domains shown)
VH: B1 VH with P53L
VL: B1 VL with S56T
B19: XENP35091 H1.7_L1 (antibody, V domains shown)
VH: B5 VH with N55Q, T93V
VL: B1 VL with S56T
B20: XENP35092 H1.8_L1 (antibody, V domains shown)
VH: B5 VH with G56D, T93V
VL: B1 VL with S56T
B21: XENP35062 H2_L1.19 (antibody, V domains shown)
VH: B1 VH
VL: B1 VL with T52S, S56T
B22: XENP35936 H2_L1.114 (antibody, V domains shown)
VH: B1 VH
VL: B1 VL with S56T, S94G
B23: XENP35047 H2_L1.4 (antibody, V domains shown)
VH: B1 VH
VL: B1 VL with I29V, S56T
B24: XENP35087 H1.3_L1 (antibody, V domains shown)
VH: B5 VH with P53S, T93V
VL: B1 VL with S56T
B25: XENP35061 H2_L1.18 (antibody, V domains shown)
VH: B1 VH
VL: B1 VL with A51T, S56T
B26: XENP35102 having H2.9_L1 (antibody, V domains shown)
VH: B1 VH with G56A
VL: B1 VL with S56T
B27: XENP35059 H2_L1.16 (antibody, V domains shown)
VH: B1 VH
VL: B1 VL with G50A, S56T
B28: XENP36025 H2.75_L1 (antibody, V domains shown)
VH: B1 VH with N54H
VL: B1 VL with S56T
B29: XENP35101 having H2.8_L1 (antibody, V domains shown)
VH: B1 VH with G56D
VL: B1 VL with S56T
B30: XENP35088 H1.4_L1 (antibody, V domains shown)
VH: B5 VH with P53A, T93V
VL: B1 VL with S56T
B31: XENP35065 H2_L1.22 (antibody, V domains shown)
VH: B1 VH
VL: B1 VL with S53Q, S56T

Assays:
Assay in all cases: HEK293E cell binding; avid
human CLDN9 [1] = target: T1, human CLDN9 (UniProt O95484 1-217)
T1 chain: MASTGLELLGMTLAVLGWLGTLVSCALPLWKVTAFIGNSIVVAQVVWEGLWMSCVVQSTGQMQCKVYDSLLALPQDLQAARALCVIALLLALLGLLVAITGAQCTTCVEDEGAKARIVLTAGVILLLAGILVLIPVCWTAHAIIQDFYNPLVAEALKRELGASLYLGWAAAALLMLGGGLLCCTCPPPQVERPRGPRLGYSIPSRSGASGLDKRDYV

human CLDN6 [2] = target: T2, human CLDN6 (UniProt P56747 1-220)
T2 chain: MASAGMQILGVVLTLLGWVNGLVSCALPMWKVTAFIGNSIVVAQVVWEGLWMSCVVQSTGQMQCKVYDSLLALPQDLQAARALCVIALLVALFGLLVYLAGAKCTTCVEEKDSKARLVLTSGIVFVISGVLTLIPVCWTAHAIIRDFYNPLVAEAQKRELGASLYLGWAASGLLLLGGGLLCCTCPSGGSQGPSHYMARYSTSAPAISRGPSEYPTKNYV

human CLDN9 [3] = target: T1, human CLDN9
human CLDN6 [4] = target: T2, human CLDN6

Binder | EC50 (human CLDN9 [1]) | EC50 (human CLDN6 [2]) | EC50 (human CLDN9 [3]) | EC50 (human CLDN6 [4])
B1 | 29.7 µg/mL | 1.18 µg/mL |  | 
B2 |  |  | 34.1 µg/mL | 0.408 µg/mL
B3 | 31.8 µg/mL | 1.59 µg/mL |  | 
B4 | 14.1 µg/mL | 0.979 µg/mL |  | 
B5 |  |  | 16.8 µg/mL | 0.617 µg/mL
B6 |  |  | 18 µg/mL | 0.567 µg/mL
B7 | 99.3 µg/mL | 2.22 µg/mL |  | 
B8 |  |  | 492 µg/mL | 0.783 µg/mL
B9 |  |  | 99.1 µg/mL | 0.792 µg/mL
B10 | 110 µg/mL | 1.24 µg/mL |  | 
B11 |  | 4.34 µg/mL |  | 
B12 | 53.1 µg/mL | 0.978 µg/mL |  | 
B13 |  |  | 32.5 µg/mL | 0.449 µg/mL
B14 | 72.9 µg/mL | 1.1 µg/mL |  | 
B15 |  |  | 47.2 µg/mL | 0.514 µg/mL
B16 | 63.5 µg/mL | 1.14 µg/mL |  | 

Binder | EC50 (human CLDN9 [1]) | EC50 (human CLDN6 [2]) | EC50 (human CLDN9 [3]) | EC50 (human CLDN6 [4])
B17 |  |  | 29.2 µg/mL | 0.323 µg/mL
B18 |  |  | 49.3 µg/mL | 0.902 µg/mL
B19 | 31.4 µg/mL | 1.43 µg/mL |  | 
B20 | 25 µg/mL | 1.16 µg/mL |  | 
B21 | 86.8 µg/mL | 1.23 µg/mL |  | 
B22 |  |  | 57.4 µg/mL | 0.829 µg/mL
B23 | 17.6 µg/mL | 0.795 µg/mL |  | 
B24 | 31.8 µg/mL | 1.2 µg/mL |  | 
B25 | 56.3 µg/mL | 1.25 µg/mL |  | 
B26 | 1.43 µg/mL | 3.53 µg/mL |  | 
B27 | 32.7 µg/mL | 1.28 µg/mL |  | 
B28 |  |  | 61.1 µg/mL | 1.34 µg/mL
B29 | 1.06 µg/mL | 24.8 µg/mL |  | 
B30 | 29.2 µg/mL | 1.29 µg/mL |  | 
B31 | 69.1 µg/mL | 1.48 µg/mL |  | 
